Assay results published in the DeepSol protein solubility set.

test: soluble on expression in E. coli; label from the status in PepcDB or PDB records

Row | Sequence | soluble on expression in E. coli
1 | MKVAILGYGTVGSAVVKFLLENDKLIRARCGQSITPVIALARSPKKNALIPITHSVAEILNADVDVFVELMGGVDEAFKIVSEILKKKKAVVTANKAMLAYHRYELENLAKNLAFGYEASVAGGIPIIKVLKEGLSANNILAIKGILNGTSNYILSSMSQKNMSFKQALQIAQNLGYAEADPTFDIEGQDAAHKLLVLSSIAYNLKAKPEDILIEGISEIAPEDMYFANEFEFTIKLLGIAKVRENKVELRVHPTMIDKEKMLAKVDGVMNAISINGDLLGESLYYGAGAGGEATASAVISDLMDIARDQVKAPMLGFVNTLEYKLLSKDEIYTKYYLRVKVEDKIGILSKITQLMSENNISIDSFLQKPKKNDENYSTLFFTTHLTYEKSIQNLLEILRKQDFIKTKPFMMRIE | not soluble
2 | MKVIETNFTDAKLLEPRLFGDDRGFFTESYNKKVLETLGVTHSFVQDNVSYSAEAGTIRGLHFQKNPKAQTKLIQVMQGAIYDVIVDLRKDSPTFKQWRGYILSADNHRQLLVPKGFAHGFCTLVPHTIVMYKVDEYYSADHDSGVLWNDKELAIPWPVTSPILSDKDRILPLLQECEDSF | not soluble
3 | MKVLAFDTSSKALSLAILEDKQVLAETTINIKKNHSITLMPAIDFLMASLDWTPKDLDRIVVAEGPGSYTGLRIAVATAKTLAHTLNIELVGMSSLLALVPHQQEGLFVPLMDARRNNVYAGFYENAKPVMAEAHLSFEEVLEKVKGTSQVTFVGEVGPFVEQIQKHLPRTDYKETLPNAANLALLAWDKEADSLHDFVPNYLKRVEAEENWLKNHTESGESYIKRL | not soluble
4 | MKVLFVYAGMHPAHEPFVEAVKADVYPAYHKDVNGFVKFVEGLKMAREYPDYDVYILEGGMPMFPMYLRKKLFRKNGFVVGLLADETFINLVERQPHYSTAETLIHRISAKVLDAAIAVSPFVKEYAEKIIDVPIEVVRPAIPKDSYEKLGKVKPNLESNVIVSVGQPRFSIGMDVLVEQFRIAKKQIPDLELWIVGKGHPKEYERVEGVKVLGYVEDLSEVFEEASLFVHAGRCSAYPVATLEAMRAGLPVVVSTMTGTKEIVERVEEQVKREFGLNYDGNKFIQPLNRIFEGIVEYFKLDSEVRRIMSELYKKESEEFEPGKRGREFKEKFKKLLANFNNKEVP | not soluble
5 | MKVNILMATYNGEKFLAQQIESIQKQTFKEWNLLIRDDGSSDKTCDIIRNFTAKDSRIRFINENEHHNLGVIKSFFTLVNYEVADFYFFSDQDDVWLPEKLSVSLEAAKHKASDVPLLVYTDLKVVNQELNILQDSMIRAQSHHANTTLLPELTENTVTGGTMMINHALAEKWFTPNDILMHDWFLALLAASLGEIIYLDLPTQLYRQHDNNVLGARTMDKRFKILREGPKSIFTRYWKLIHDSQKQASLIVDKYGDIMTANDLELIKCFIKIDKQPFMTRLRWLWKYGYSKNQFKHQVVFKWLIATNYYNKRLEHHHHHH | soluble
6 | MKVNVSCSSVQTTIDILEENQGEDESILTLGQLRDRIATDNDVDVETMKLLHRGKFLQGADDVSLSTLNFKENDKIIVMGGKNALVDDAGFKMLMQYEKHNLSNLQKAYDLNLRDVADLERGFLEKPKQVEMGKKLEKKVKYFNEEAERHLETLDGMNIITETTPENQAKRNREKRKTLVNGIQTLLNQNDALLRRLQEYQSVLNGDIPE | soluble
7 | MKVRAIFLNFSVQLTPPSRLVILRNQSVFFSALLLNCPPLLPLPTEASPCYAVSESQPYARKQSCIITAARSAPSVDHIQVVLCRPHNSLLVCPSSHARSSTAVMATEDELRELLPKMRFNKEFKKKQKYQYKKRVEAREKEREIVTGKRRPASEQIQSASDGAKTKTTAAKKSGGAGRAGTKRKPKTRVPKLKVANVETGKETLTKKKARELVQENRKKKACAKKEPKLTAKSTRAGAATAAVVSSETLEGKQSKARVTKDELPATAAQAASSVEPTQTLTQAERDRELLARAIRGDDLLGSDAAAGVADDAAFIRQDPSLYPDHAFLDDYAEKKHAEAVSADELLQNAHHFFKKLSKQERALNKVAKEHINHLRAVNRRGGDKQGFRYVVPKNVKQVVRELLSAQKARDGDEDPETLVDTEQLVSTFGGDGVAETSEKPVRRSRRRRLRTYSDFYQFQVSRRWTRNAENFLKRSRSNKLLFEAKKHQRTIKHF | not soluble
8 | MKVSDILTVAIRLEEEGERFYRELSEHFNGEIKKTFLELADQERIHAEIFRKMSDQENWDEVDSYLAGYAFYEVFPDTSEILRRKDLTLKEVLDIAISVEKDSIILYYELKDGLVNSDAQKTVKKIIDQEKEHLRKLLEMKREST | not soluble
9 | MKWKVLQLKTQEIKVNNLAKSSLHQPGSLVLRNRIRNNQTISNHQKVYITNLHKDKLKLNNLLRLMKSTNRHMPFRNLVLATGQELALLHNKRKRRKTLPLALFYSHLILL | not soluble
10 | MKWRTRVTELLGITYPIIQGGLAYLAYADLAAAVSNAGGLGQITAMSLDGPEQLREEIRKVKEKTDRPFGVNFAIGQHGRPFAHMLEAALDEGVPVVSVTGGNPAPFFEQLKGTNVKKLVLVAAVRQAVKAEELGADAVMVVGQEGGGHLGKYDTGTFVLIPKVVDSVSIPVIASGGIADGRGLMAALALGAEGIEMGTRFIATKECVHAHPAYKEMILNATENDTVIIKRSLGAPGRVLANAWAEKILEIERQGGTYDDLKEYISGEANRRFIYEGKVDEGFAWAGQAIGLIHDVPSVAELFARMIEEAEQIRRRWAN | not soluble
11 | MKYKDLRDFIAMLEQQGKLKRVAHPVSPHLEMTEIADRVLRAEGPALLFENPVKPDGTRYDYPVLANLFGTPERVAMGMGADSVSKLREIGQTLAYLKEPEPPKGIKDAFSKLPLLKDIWSMAPNVVKNAPCQEIVWEGEDVDLYQLPIQHCWPEDVAPLVTWGLTVTRGPHKKRQNLGIYRQQLIGKNKLVMRWLSHRGGALDYQEFRKLNPDTPYPVAVVLGCDPSTILGAVTPVPDTLSEYQFAGLLRGSRTELVKCIGSDLQVPARAEIVLEGVIHPNETALEGPYGDHTGYYNEQGHFPVFTVERITMRENPIYHSTYTGKPPDEPAVLGVALNEVFVPLLQKQFSEITDFYLPPEGCSYRMAVVSMKKQYAGHAKRVMTGCWSFLRQFMYTKFIIVVDDDVNVRDWKEVIWAVTTRMDPVRDTVLVENTPIDYLDFASPVSGLGGKMGLDATSKWPGETDREWGRVIKKDPAVTVKIDGIWGKLGLLEHHHHHH | not soluble
12 | MKYQLRAIDNQLDEMLQFSGAIAVEGVKGVGKTESAIRRSEHLLQLDRAGDRQLLEADPEFSSFSTGTILIDEWQRMPECWDFVRRGVDAQRTPGRFLLTGSATPQAGIDTHSGAGRILSIRMRPMALFERREHSATVSLADLFLGNAPISGTTDLTLNDYVSEIARSGFPGFNEQPQRAINVELDSYIERIVDRDLPEQGYNVRNRAGLLGWMRAYAAASSTTMSYSEILNAATPGESDKPARKTAALYRSKLTEIWMLDEVPAWDFVRSPLAGLAQAPKHQLADPAFVLRLLGVPANRLVTERYRHFLGPLFESLATLSVRVAAESQFGSVRHLRTRRGDHEVDLIASNQDGDLVAIEVKLTADVKNDDVAHLHWLKEQLPDDVVDMVVLTTGNRAYRRSDGVAVVPLALFGA | not soluble
13 | MKYSSIFSMLSFFILFACNETAVYGSDENIIFMRYVEKLHLDKYSVKNTVKTETMAIQLAEIYVRYRYGERIAEEEKPYLITELPDSWVVEGAKLPYEVAGGVFIIEINKKNGCVLNFLHSKLEHHHHHH | not soluble
14 | MKYTFLLLCAIFGCTLAMRQQSVAVSGKLMCGSKPASGVKVKLWDEDDGPDPDDVLDEGFTNNDGTFRLEGSERELTNIDPVFKVYHDCDDGIIPGQRKIKFRIPNKYISAGGRAQKTFEIGVLNLETIFPKEERDLL | not soluble
15 | MLALMDADGNIAWSGEYDEWGNQLNEENPHHLHQPYRLPGQQYDKESGLYYNRNRYYDPLQGRYITQDPIGLEGGWSLYAYPLNPVNGIDPLGLSPADVALIRRKDQLNHQRAWDILSDTYEDMKRLNLGGTDQFFHCMAFCRVSKLNDAGVSRSAKGLGYEKEIRDYGLNLFGMYGRKVKLSHSEMIEDNKKDLAVNDHGLTCPSTTDCSDRCSDYINPEHKKTIKALQDAGYLKLEHHHHHH | not soluble
16 | MLASIVISSVHSIGTGALECRATHRGHRAGPYLSSSETRHRAAISGTVDMRETKQGLRHSGRSPSVASPKIDELIGRPQPDTIRLSRGRPVRNS | not soluble
17 | MLAVSFIAGVILIGLYGVDSSERYIAVSELLANPQDYSGQNINAMGVVEDRSLHKDPGVTSFDLKDENDENLKIHVNYVGNLPSNLAEGKQVTIRGSMISESTFEANKIVTGCPSKYTELEHHHHHH | not soluble
18 | MLDLFADAEPWQEPLAAGAVILRRFAFNAAEQLIRDINDVASQSPFRQMVTPGGYTMSVAMTNCGHLGWTTHRQGYLYSPIDPQTNKPWPAMPQSFHNLCQRAATAAGYPDFQPDACLINRYAPGAKLSLHQDKDEPDLRAPIVSVSLGLPAIFQFGGLKRNDPLKRLLLEHGDVVVWGGESRLFYHGIQPLKAGFHPLTIDCRYNLTFRQAGKKENLYFQNLYFQ | soluble
19 | MLEDYAISLEEVNFNDFIVVDVRELDEYEELHLPNATLISVNDQEKLADFLSQHKDKKVLLHCRAGRRALDAAKSMHELGYTPYYLEGNVYDFEKYGFRMVYDDTCDKKN | soluble
20 | MLEESKNALRVFITGNPGVGKTTILLFLINKLSENNYKVAGFYCPEVRENGRRIGFRIVDITTNEGDWLAKENAPGRVKIGKYTVLEDSAKRITEITLSNINKADVLAIDEIGPMELKIPTIKKLIETILNNQKPLIAVLHRTQKPMGGRIYVITVENRDSIKYEILNYILSSLD | soluble
21 | MLEKFTVIRGKAVPLRGEDIDTDRILPARFMKVLTFEGLGQYLFYDERFDEKGNPKPHPLNDPRYRGATILLVESGFGSGSSREHAPQAIKRAGFKAIIGESFAEIFFGNATAIGLPCVSLAPEDLGVLFRSVEENPELEVEIDLVNKEVRFGDRTAPLFIREEAREALVEGLWDPIGELLEAGELLDQFDRKLPYPRRTE | soluble
22 | MLEKIYSVLGTGSCLVKDGEIIESYLLSDEEVKLIEKIAKVIPFLPEKFKVGFFEHEGGRIIAIKHGEVFICFPARSDNVMSELRKVEVEVYDKILSP | not soluble
23 | MLEKWEPIMAETRKLKYDEAALRTLTREDLDALEIGAGILGTGGGGNPYLGKLLALEAMKAGYEMKILATDAIEPDALCMSIGGIGAPVVGVERIREGREGLRCLRAMEELIRTPVDAIVCEEIGGSNSMNPLVTAALGGLPILDCDGMGRAFPEMQMTTFSIYGHSSTPSVMCDLHGNAVIFSHAVSEVWHERMARACVVAQGGGAMLATAPMQAHYVHQYGIPKTYTKAIAIGEAVIRARKQQEDPIAAVCALEGGRRIFNGKITDLKRHLRGGFAVGDLTLSGFDDCAGQTAGVAIQNEFLLFSRDGKVEVTVPDLIVLLDVDTGYPITTEVLRYGQRVAVIAIPCHDLLRSARALEVVGPAAFGYPDIPFSPLPLPVSKAALEHHHHHH | soluble
24 | MLELYHRKKLFNLLKAPLKKKPFFFIYNTKQTYRDKTPMRNIDFSKLHLSEDVRANEKVHNKRNLFMSNKIIHYLPPKRHD | not soluble
